Experimental data: PMC12295762, “Role of Individual Amino Acid Residues Directly Involved in Damage Recognition in Active Demethylation by ABH2 Dioxygenase”

What was measured:
Assay in all cases: EMSA; 0.5 mM αKG, 10 mM Mg2+, 2 mM ascorbate; 50 mM Tris-HCl pH 8.0, 50 mM KCl, 10 mM MgCl2, 0.5 mM αKG, 2 mM sodium ascorbate; 1.2 µM DNA, 0.4-12.8 µM protein; 10 min 37 °C then 5 min on ice; 10% native PAGE, 0.5x TBE, 4-8 °C; Hill fit
Conditions in all cases: protein: recombinant; tags: N-terminal His6; label: 5'-FAM on strand 1; blunt
ABH2 V99A = biological target: T1, ABH2 V99A (human, UniProt Q6NS38 1-261, V99A)
T1 sequence: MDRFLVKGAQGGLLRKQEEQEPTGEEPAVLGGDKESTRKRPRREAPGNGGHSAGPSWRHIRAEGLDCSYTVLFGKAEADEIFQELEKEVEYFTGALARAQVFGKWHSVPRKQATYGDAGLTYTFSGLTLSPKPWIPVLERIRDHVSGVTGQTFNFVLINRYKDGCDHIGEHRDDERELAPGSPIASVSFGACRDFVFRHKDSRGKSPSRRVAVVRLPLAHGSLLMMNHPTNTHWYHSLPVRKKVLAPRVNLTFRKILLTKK

ABH2 R172A = biological target: T2, ABH2 R172A (human, UniProt Q6NS38 1-261, R172A)
T2 sequence: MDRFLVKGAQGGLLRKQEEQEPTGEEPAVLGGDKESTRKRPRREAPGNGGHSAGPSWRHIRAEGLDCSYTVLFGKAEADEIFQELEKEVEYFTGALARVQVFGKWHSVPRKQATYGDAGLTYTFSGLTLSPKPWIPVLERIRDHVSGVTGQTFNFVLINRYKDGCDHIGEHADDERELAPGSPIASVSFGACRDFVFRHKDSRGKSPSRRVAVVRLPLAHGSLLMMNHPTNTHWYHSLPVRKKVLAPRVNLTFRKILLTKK

ABH2 E175A = biological target: T3, ABH2 E175A (human, UniProt Q6NS38 1-261, E175A)
T3 sequence: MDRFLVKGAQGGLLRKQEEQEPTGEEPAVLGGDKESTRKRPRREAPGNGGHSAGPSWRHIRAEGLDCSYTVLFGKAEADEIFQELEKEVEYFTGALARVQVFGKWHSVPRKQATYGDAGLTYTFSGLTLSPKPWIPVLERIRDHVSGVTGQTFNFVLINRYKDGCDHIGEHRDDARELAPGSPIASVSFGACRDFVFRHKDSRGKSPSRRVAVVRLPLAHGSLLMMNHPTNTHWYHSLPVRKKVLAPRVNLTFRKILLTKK

ABH2 R110A = biological target: T4, ABH2 R110A (human, UniProt Q6NS38 1-261, R110A)
T4 sequence: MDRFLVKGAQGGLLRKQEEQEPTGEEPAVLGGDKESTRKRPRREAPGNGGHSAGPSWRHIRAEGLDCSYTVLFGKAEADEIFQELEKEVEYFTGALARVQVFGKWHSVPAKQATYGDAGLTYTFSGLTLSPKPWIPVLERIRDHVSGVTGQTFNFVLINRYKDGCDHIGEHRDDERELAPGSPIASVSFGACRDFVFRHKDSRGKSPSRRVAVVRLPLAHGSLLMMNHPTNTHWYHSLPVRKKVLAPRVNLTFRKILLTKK

ABH2 S125A = biological target: T5, ABH2 S125A (human, UniProt Q6NS38 1-261, S125A)
T5 sequence: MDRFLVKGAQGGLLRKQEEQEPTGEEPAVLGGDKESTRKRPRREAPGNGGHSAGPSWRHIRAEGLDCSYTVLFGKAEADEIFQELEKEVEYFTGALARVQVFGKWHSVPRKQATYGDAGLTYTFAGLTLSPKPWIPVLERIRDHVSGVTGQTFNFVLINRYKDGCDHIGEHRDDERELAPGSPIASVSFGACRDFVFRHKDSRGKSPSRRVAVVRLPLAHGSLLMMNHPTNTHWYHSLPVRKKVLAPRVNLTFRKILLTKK

ABH2 F124A = biological target: T6, ABH2 F124A (human, UniProt Q6NS38 1-261, F124A)
T6 sequence: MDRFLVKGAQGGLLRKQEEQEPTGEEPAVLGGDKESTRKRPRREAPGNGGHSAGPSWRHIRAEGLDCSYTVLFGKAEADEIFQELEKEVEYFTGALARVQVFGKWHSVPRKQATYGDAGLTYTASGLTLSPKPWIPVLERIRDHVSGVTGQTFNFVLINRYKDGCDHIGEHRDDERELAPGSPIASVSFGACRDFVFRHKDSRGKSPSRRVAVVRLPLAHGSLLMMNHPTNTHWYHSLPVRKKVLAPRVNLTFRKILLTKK

B1: m3C dsDNA (dsDNA)
DNA 1: AGTTCAATGATCTTCAT
DNA 2: ATGAAGATCATTGAACT
modifications: N3-methylcytosine (m3C) at position 12 of strand 1
In the case of B1, the Kd (ABH2 V99A) is reported as 2.5 ± 0.6 µM, the Kd (ABH2 R172A) is reported as 2.6 ± 0.4 µM and the Kd (ABH2 E175A) is reported as 2.96 ± 0.04 µM. For the same binder, the Kd (ABH2 R110A) was 4 ± 0.3 µM, the Kd (ABH2 S125A) was 4 ± 0.3 µM and the Kd (ABH2 F124A) was 4.4 ± 0.7 µM.

B2: m1A dsDNA (dsDNA)
DNA 1: AGTTCAATGATCTTCAT
DNA 2: ATGAAGATCATTGAACT
modifications: N1-methyladenine (m1A) at position 10 of strand 1
B2 was tested, and the Kd (ABH2 V99A) was 3.2 ± 0.3 µM, the Kd (ABH2 R172A) was 2.1 ± 0.08 µM and the Kd (ABH2 E175A) was 2.44 ± 0.06 µM. The Kd (ABH2 R110A) was 3.4 ± 0.2 µM, the Kd (ABH2 S125A) was 2.7 ± 0.3 µM and the Kd (ABH2 F124A) was 3.1 ± 0.3 µM.
